One block for each binder: values may come before it.
What was measured:
[1] = molecular target: T1, full-length human CTLA4 on the cell surface (HEK293F transfectants); also activated human T cells, … (human, UniProt P16410 36-223); test: flow cytometry on HEK293F cells transiently expressing full-length human CTLA4; Alexa Fluor 647 anti-human Fc
T1 construct: whole, on cells; used for every assay with human CTLA4 on cells; also called HEK293F/hCTLA-4; HEK293F/hCTLA4
T1 sequence (looked up): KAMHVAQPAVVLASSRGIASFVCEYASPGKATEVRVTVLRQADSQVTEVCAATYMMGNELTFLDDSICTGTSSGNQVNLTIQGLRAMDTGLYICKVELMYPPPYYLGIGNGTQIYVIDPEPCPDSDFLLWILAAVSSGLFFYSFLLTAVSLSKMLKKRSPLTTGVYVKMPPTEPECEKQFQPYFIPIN
Method: (§1) The affinities of the antibodies were also assessed against human and mouse CTLA4 transiently expressed on the surface of HEK293F cells (FIG. 2). Briefly, HEK293F cells were transfected with a plasmid expressing full-length human, monkey or mouse CTLA4 from a bicistronic IRES vector also encoding EGFP, and EGFP expression was used to identify the transfected cells. After 48 hours, the mammalian cell suspension (2×10⁵/well) was transferred to an Eppendorf tube, centrifuged, the supernatant was discarded, the cells were resuspended with 1 mL PBSA (to a density is 4×10⁶ cells/mL), and added to a 96 well plate. […] The cells were then washed once prior to analysis by flow cytometry (Beckman® CytoFlex).

[2] = molecular target: T2, full-length mouse CTLA4 on the cell surface (HEK293F transfectants; also activated mouse T cells) (mouse, UniProt P09793 36-223); test: flow cytometry on HEK293F cells transiently expressing full-length mouse CTLA4; Alexa Fluor 647 anti-human Fc
T2 construct: whole, on cells; also called mouse cell-surface exposed mouse CTLA4
Method: as §1

[3] = molecular target: T3, recombinant human CTLA4 fused with human Fc and His tag (human, UniProt P16410 37-162, limits assumed, biotinylated where used in solution); test: competition ELISA: plate-bound human CTLA4-Fc-His, biotinylated human CD80 as the blocked ligand, HRP-neutravidin
T3 construct: also called biotinylated human CTLA4 fused with human FC and His tag; recombinant human CTLA4 proteins; not shown: human Fc and His tag
T3 sequence (looked up): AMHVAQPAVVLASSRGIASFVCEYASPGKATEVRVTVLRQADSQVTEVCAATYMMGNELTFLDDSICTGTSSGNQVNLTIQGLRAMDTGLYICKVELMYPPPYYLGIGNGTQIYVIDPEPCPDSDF
Method: Plates were blocked with PBS supplemented with 2% (w/v) skim milk at 37° C. for 1 hour. […] Plates were washed four times, and 100 μL HRP-neutravidin (1:1000) was added to each well and incubated at 37° C. for 1 hour. Plates were washed as previously described, and 50 μL TMB substrate solution was added and incubated at room temperature for 5 minutes before the reaction was stopped by 50 μL sulfate acid (2M).

[4] = molecular target: T4, cynomolgus monkey CTLA4 antigen fused with human FC fragment (cynomolgus monkey, UniProt G7PL88 36-161, fused to a human Fc fragment that is not in the letters); test: ELISA, captured Fab
T4 sequence: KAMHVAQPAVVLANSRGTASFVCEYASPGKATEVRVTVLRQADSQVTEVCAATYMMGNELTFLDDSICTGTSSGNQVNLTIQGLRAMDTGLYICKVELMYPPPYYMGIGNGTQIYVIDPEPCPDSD

[5] = molecular target: T5, recombinant human CTLA4-Fc (Sino Biological, 11159-H03H) (human, UniProt P16410 37-162); test: ELISA, captured Fab
T5 construct: bought; whole entry named; Biotinylated in the yeast display assays; also called human CTLA4 fused with human FC fragment; biotinylated CTLA4-Fc; not shown: human Fc fragment
T5 sequence (looked up): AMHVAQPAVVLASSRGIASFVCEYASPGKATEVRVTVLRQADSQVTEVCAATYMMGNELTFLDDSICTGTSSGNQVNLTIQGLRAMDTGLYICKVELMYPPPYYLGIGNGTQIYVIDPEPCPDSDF

[6] = molecular target: T6, mouse CTLA4 antigen fused with human FC fragment (mouse, UniProt P09793 36-162, limits assumed); test: ELISA, captured Fab
T6 construct: not shown: human Fc fragment

[7] = molecular target: T5, recombinant human CTLA4-Fc (Sino …); test: ELISA, coated human CTLA4-Fc
Method: (§2) Plates were blocked with PBS supplemented with 3% non-fat milk at 37° C. for 1 hour. After washing, 100 μL of 3-fold serial dilutions of antibodies were added to each well. After incubation at 37° C. for 1 hour, plates were washed four times, and […] conjugated anti-human IgG (Fab specific) (1:6000 dilution) was added to each well. Plates were incubated at 37° C. for 1 hour, washed four times, and then 50 μL TMB substrate solution was added to each well, and the plate was incubated at room temperature. […] The EC₅₀ was evaluated by fitting the ELISA data using the asymmetrical sigmoidal (five-parameter logistic equation) model of GraphPad Prism 6 software.
The purified activatable antibodies were treated with the proteases which recognize the cleavage sequences, and were then tested to determine whether removal of the masking peptide restored their activity.

[8] = molecular target: T5, recombinant human CTLA4-Fc (Sino …); test: ELISA, coated human CTLA4-Fc, batch 2
Method: as §2

[9] = molecular target: T5, recombinant human CTLA4-Fc (Sino …); test: ELISA, coated human CTLA4-Fc, batch 1
Method: as §2

[10] = molecular target: T5, recombinant human CTLA4-Fc (Sino …); test: ELISA, coated human CTLA4-Fc, batch 1; Data Batch 1
Method: as §2

[11] = molecular target: T5, recombinant human CTLA4-Fc (Sino …); test: ELISA, coated human CTLA4-Fc (as Example 8)
Method: as §2

[12] = molecular target: T5, recombinant human CTLA4-Fc (Sino …); test: ELISA, coated human CTLA4-Fc (as Example 8); remark: listed apart in the source
Method: as §2

[13] = molecular target: T5, recombinant human CTLA4-Fc (Sino …); test: ELISA, coated human CTLA4-Fc (as Example 8); remark: listed apart in the source
Method: as §2

human CD80 (recombinant) = molecular target: T7, human CD80 (recombinant) (human, UniProt P33681 35-242, limits assumed, biotinylated where used in solution); test: flow cytometry on yeast displaying CTLA4; Normalized FACS Bound, human WT = 1
T7 construct: also called biotinylated CD80
T7 sequence (looked up): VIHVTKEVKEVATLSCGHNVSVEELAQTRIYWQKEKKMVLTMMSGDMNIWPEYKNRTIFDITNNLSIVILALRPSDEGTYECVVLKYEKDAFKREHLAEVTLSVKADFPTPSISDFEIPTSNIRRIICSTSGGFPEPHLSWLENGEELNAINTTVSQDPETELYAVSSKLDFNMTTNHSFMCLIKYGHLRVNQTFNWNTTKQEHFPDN

[14] = molecular target: T8, human CD86 (epitope mapping reagent) (human, UniProt P42081 24-247, limits assumed); test: as above
T8 sequence (looked up): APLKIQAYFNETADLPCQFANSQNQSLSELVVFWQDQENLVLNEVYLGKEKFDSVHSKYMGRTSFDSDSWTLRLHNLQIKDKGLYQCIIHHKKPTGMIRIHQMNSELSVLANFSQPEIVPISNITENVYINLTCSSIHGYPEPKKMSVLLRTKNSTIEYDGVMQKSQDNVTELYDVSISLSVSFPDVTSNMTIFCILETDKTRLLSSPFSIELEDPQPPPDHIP

mouse CD86 = molecular target: T9, mouse CD86 (mouse, UniProt P42082 24-244, limits assumed); test: as above
T9 sequence (looked up): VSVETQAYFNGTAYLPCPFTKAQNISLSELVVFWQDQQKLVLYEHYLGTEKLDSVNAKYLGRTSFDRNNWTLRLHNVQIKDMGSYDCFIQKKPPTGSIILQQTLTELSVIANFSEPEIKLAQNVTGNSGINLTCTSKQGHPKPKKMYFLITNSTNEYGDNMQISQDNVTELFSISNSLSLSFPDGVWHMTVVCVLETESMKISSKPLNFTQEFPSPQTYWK

- binding result [1]: binds
- binding result [2]: binds
- binding result [3]: binds
B1: TY21588 (antibody, V domains shown)
VH: EVQLVESGGGLVQPGGSLRLSCAASGYSISSGYHWDWIRQAPGKGLEWVSGISGYGGSTYYADSVKGRFTISRDNSKNTLYLQLNSLRAEDTAVYYCARHSYYGSGNFDYWGQGTLVTVSS
VL: DIQLTQSPSSLSASVGDRVTITCRASESVDFFGKSFLHWYQQKPGKAPKLLIYDASNLETGVPSRFSGSGSGTDFTLTISSLQPEDFATYYCQQSYSWPPTFGQGTKVEIKR

- binding result [4]: binds
- binding result [5]: binds
- binding result [6]: binds
B2: B15732 (Fab, V domains shown)
VH: EVQLVESGGGLVQPGGSLRLSCAASGYSISSGYHWDWIRQAPGKGLEWVSGISGYGGSTYYADSVKGRFTISRDNSKNTLYLQLNSLRAEDTAVYYCARHSYYGSGNFDYWGQGTLVTVSS
VL: DIQLTQSPSSLSASVGDRVTITCRASESVDFFGKSFLHWYQQKPGKAPKLLIYDASNLETGVPSRFSGSGSGTDFTLTISSLQPEDFATYYCQQSYSWPPTFGQGTKVEIKR
notes: Fab hit from E. coli

- LogEC50 [7]: -7.01 log M
- EC50 [8]: 128 nM
- LogEC50 [8]: -6.89 log M
- EC50 [9]: 178 nM
- LogEC50 [9]: -6.75 log M
- EC50 [10]: 178 nM
B3: TY22404 (antibody, IgG1, V domains shown)
VH: EVQLVESGGGLVQPGGSLRLSCAASGYSISSGYHWSWIRQAPGKGLEWLARIDWDDDKYYSTSLKSRLTISRDNSKNTLYLQLNSLRAEDTAVYYCARSYVYFDYWGQGTLVTVSS
VL: EVGSYPNPSSDCVPYYYACAYSGRSAGGGGSPLGLAGSGGSDIQLTQSPSSLSASVGDRVTITCRASQSVRGRFLAWYQQKPGKAPKLLIYDASNRATGIPSRFSGSGSGTDFTLTISSLQPEDFATYYCQQSSSWPPTFGQGTKVEIKR
notes: also called masking peptide B13197

- EC50 [11]: 117 nM
- EC50 [12]: 122 nM
- EC50 [13]: 68.4 nM
B4: TY22404 (peptide as listed in Tables 26 and 29) (antibody, V domains shown)
VH: EVQLVESGGGLVQPGGSLRLSCAASGYSISSGYHWSWIRQAPGKGLEWLARIDWDDDKYYSTSLKSRLTISRDNSKNTLYLQLNSLRAEDTAVYYCARSYVYFDYWGQGTLVTVSS
VL: EVGSYPNPSSDCVPYYYACAYSGRSAGGGGTPLGLAGSGGSDIQLTQSPSSLSASVGDRVTITCRASQSVRGRFLAWYQQKPGKAPKLLIYDASNRATGIPSRFSGSGSGTDFTLTISSLQPEDFATYYCQQSSSWPPTFGQGTKVEIKR
notes: kept apart from m68

- binding result (human CD80 (recombinant)): binds
- binding result [14]: binds
- binding result (mouse CD86): binds
B5: human CTLA4 mutant YLGIG105FVGMG displayed on yeast (receptor)
chain: KAMHVAQPAVVLASSRGIASFVCEYASPGKATEVRVTVLRQADSQVTEVCAATYMMGNELTFLDDSICTGTSSGNQVNLTIQGLRAMDTGLYICKVELMYPPPYFVGMGNGTQIYVIDPE
notes: also called G strand changed to mouse

— patent publication US20210206855A1 (ADAGENE, published 2021)
